Data published in patent US20090226456A1 (published 2009).

Columns and labels:
Experiment in all cases: flow cytometry on transiently transfected cells
[1] = molecular target: T1, TNFR2 on transiently transfected cells (human, UniProt P20333 23-461)
T1 sequence: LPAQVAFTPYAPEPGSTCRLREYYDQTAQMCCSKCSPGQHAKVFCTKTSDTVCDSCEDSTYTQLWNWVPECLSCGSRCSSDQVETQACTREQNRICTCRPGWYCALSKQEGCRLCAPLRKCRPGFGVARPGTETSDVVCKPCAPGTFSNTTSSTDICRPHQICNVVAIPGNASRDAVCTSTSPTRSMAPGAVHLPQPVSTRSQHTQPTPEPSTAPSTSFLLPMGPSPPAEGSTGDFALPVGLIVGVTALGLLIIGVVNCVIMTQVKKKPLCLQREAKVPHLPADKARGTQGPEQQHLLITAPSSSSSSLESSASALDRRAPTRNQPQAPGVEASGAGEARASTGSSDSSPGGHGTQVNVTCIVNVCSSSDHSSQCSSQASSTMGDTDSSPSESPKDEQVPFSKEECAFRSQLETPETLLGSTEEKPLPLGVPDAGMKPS
Experimental: (§1) One million cells, in 0.1 ml of FACS buffer (PBS, 0.1% BSA, 0.1% NaN₃), were incubated with 0.1-1 microgram of protein or antibody at RT for 15 min. The cells were washed with 3 ml of FACS buffer, reacted with biotinylated primary antibody, and stained with PE-conjugated secondary antibody at RT for 15 min. Cells were then washed again, resuspended in 0.5 microgram/ml of propidium iodide, and live cells were gated and analyzed on a FACScan using the CellQuest software (BD Biosciences).

[2] = molecular target: T2, LTβR on transiently transfected cells (UniProt P36941 31-435, limits assumed)
T2 construct: whole, on cells
Experimental: as §1

[3] = molecular target: T3, 4-1BB on transiently transfected cells (UniProt Q07011 24-255)
T3 construct: whole, on cells
Experimental: as §1

[4] = molecular target: T4, CD27 on transiently transfected cells (UniProt P26842 20-260, limits assumed)
T4 construct: whole, on cells
T4 sequence (looked up): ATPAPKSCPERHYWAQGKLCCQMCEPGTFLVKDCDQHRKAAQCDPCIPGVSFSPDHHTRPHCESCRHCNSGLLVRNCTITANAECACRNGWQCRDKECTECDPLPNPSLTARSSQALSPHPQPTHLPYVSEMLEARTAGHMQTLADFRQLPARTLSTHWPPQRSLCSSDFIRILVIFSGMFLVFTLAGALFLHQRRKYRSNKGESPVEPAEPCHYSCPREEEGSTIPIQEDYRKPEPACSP
Experimental: as §1

[5] = molecular target: T5, DR4 on transiently transfected cells (UniProt O00220 24-468, limits assumed)
T5 construct: whole, on cells
T5 sequence (looked up): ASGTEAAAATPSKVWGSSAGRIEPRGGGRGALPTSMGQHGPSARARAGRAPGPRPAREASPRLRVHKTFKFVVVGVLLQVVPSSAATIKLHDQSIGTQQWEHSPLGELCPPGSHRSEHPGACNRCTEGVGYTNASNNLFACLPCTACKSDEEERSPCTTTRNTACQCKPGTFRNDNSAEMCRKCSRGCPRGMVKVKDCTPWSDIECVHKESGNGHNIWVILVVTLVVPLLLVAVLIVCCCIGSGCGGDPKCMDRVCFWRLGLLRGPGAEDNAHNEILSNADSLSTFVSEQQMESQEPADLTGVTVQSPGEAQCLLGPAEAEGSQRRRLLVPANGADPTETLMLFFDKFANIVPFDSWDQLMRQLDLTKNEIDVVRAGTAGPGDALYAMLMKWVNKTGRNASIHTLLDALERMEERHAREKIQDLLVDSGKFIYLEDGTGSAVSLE
Experimental: as §1

[6] = molecular target: T6, DR5 on transiently transfected cells (UniProt O14763 56-440, limits assumed)
T6 construct: whole, on cells
Experimental: as §1

[7] = molecular target: T7, DR6 on transiently transfected cells (UniProt O75509 42-655, limits assumed)
T7 construct: whole, on cells
T7 sequence (looked up): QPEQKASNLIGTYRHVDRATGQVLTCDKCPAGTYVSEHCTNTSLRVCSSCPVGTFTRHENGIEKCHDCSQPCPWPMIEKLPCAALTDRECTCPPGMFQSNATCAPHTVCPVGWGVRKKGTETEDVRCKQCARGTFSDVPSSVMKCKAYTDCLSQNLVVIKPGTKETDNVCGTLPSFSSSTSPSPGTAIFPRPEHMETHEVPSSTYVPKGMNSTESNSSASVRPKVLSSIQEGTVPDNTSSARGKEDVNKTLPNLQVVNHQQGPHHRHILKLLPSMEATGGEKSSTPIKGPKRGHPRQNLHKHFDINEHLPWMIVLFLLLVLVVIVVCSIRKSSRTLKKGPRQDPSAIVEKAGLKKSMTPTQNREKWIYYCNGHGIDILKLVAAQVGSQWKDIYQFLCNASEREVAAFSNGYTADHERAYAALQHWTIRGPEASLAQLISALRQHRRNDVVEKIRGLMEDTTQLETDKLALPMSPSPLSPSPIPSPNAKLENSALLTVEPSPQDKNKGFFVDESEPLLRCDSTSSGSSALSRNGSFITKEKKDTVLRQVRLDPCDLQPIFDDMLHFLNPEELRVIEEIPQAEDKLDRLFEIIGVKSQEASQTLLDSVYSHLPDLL
Experimental: as §1

[8] = molecular target: T8, DcR2 on transiently transfected cells (UniProt Q9UBN6 56-386, limits assumed)
T8 construct: whole, on cells
T8 sequence (looked up): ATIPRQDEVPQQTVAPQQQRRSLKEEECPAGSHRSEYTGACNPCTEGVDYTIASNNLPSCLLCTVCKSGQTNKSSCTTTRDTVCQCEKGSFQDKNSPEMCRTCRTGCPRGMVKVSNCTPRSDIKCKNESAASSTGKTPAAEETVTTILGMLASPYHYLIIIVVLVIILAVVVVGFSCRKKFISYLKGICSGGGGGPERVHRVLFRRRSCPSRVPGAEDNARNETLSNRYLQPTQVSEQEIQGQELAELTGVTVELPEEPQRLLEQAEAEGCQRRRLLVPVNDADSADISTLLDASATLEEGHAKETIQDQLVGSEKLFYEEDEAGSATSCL
Experimental: as §1

[9] = molecular target: T9, AITR on transiently transfected cells (UniProt Q9Y5U5 26-241, limits assumed)
T9 construct: whole, on cells
T9 sequence (looked up): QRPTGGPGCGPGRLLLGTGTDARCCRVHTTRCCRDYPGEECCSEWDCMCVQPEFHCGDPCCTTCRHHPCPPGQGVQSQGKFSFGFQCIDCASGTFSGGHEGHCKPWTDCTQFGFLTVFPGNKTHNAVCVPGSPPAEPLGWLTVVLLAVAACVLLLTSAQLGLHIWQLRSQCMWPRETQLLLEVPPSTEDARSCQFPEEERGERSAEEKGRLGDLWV
Experimental: as §1

Measured: binding result

T3 sequence (Q07011 24-255): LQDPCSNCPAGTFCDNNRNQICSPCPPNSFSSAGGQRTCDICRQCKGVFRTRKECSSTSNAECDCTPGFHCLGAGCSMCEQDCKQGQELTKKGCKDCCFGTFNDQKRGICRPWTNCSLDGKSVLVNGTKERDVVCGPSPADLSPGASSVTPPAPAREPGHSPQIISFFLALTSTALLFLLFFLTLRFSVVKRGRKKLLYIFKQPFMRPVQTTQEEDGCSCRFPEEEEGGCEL
T2 sequence (P36941 31-435 limits assumed): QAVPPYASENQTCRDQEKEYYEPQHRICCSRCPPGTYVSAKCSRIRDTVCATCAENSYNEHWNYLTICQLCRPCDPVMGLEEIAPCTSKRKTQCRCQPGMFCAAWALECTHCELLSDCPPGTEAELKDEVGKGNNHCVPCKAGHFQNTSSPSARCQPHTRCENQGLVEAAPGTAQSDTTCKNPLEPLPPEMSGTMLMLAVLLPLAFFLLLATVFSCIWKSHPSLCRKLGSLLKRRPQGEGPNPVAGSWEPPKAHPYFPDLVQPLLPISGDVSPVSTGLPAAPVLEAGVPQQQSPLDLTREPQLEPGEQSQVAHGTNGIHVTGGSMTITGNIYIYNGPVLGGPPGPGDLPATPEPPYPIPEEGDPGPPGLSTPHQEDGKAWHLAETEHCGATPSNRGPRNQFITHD

B1: FLAG-tagged soluble TNF-gamma-beta (aa 72-251) (ligand, human)
chain: DYKDDDDKLKGQEFAPSHQQVYAPLRADGDKPRAHLTVVRQTPTQHFKNQFPALHWEHELGLAFTKNRMNYTNKFLLIPESGDYFIYSQVTFRGMTSECSEIRQAGRPNKPDSITVVITKVTDSYPEPTQLLMGTKSVCEVGSNWFQPIYLGAMFSLQEGDKLMVNVSDISLVDYTKEDKTFFGAFLL
notes: also called FLAG-TNF-gamma-beta; FLAG-TL1β
no binding: all assays above
